Data set [1] can be described thus: SEC; SEC of the Int^N precursors with the native single cysteine (Figure S3c), no reducing agent; conditions not shown.
Data set [2] can be described thus: SEC; analytical SEC (AdvanceBio SEC 200 Å) of the purified Int^N precursor alone; each protein diluted to 10 µM and incubated for 24 h at 15 °C before the run; monomer against soluble high-MW aggregates eluting at the void volume.

We go through 4 substances from publication PMC12707363.

In data set [1], MBP‐GOM^N‐H6 gave a percent aggregated species of 78%.
The same measure, in the same setting: the value for MBP‐CP21^N‐H6 was 90%.
As to MBP‐GOM^N(C57S)‐H6, the “percent soluble high-MW aggregates” value in data set [2] is given as 76%.
Turning to MBP‐CP21^N(C43S)‐H6, the “percent soluble high-MW aggregates” value in data set [2] came out at 77%.
